{
  "source": "patent US12433934B2",
  "about": "“Methods and compositions for preventing and treating atherosclerosis and related diseases” (Shanghai Puyou Biomedical Co., Ltd., priority 2018, dated 2025)",
  "molecules": {"B1": {"name": "sDSS1 protein: sDSS1 protein produced by the company itself, purity more than 95%; sequence of human sDSS1 protein is SEQ ID NO:1 (protein, listed as Homo sapiens)", "chain": "MSEKKQPVDLGLLEEDDEFEEFPAEDWAGLDEDEDAHVWEDNWDDDNVEDDFSNQLRATVLLMILVCETPYGCYVLHQKGRMCSAFLCC"}},
  "key": {"oxLDL": {"molecular_target": "T1, oxLDL (Homo sapiens, UniProt P04114)", "T1 construct": "purchased Solarbio H7980", "T1 sequence (P04114 28-4563)": "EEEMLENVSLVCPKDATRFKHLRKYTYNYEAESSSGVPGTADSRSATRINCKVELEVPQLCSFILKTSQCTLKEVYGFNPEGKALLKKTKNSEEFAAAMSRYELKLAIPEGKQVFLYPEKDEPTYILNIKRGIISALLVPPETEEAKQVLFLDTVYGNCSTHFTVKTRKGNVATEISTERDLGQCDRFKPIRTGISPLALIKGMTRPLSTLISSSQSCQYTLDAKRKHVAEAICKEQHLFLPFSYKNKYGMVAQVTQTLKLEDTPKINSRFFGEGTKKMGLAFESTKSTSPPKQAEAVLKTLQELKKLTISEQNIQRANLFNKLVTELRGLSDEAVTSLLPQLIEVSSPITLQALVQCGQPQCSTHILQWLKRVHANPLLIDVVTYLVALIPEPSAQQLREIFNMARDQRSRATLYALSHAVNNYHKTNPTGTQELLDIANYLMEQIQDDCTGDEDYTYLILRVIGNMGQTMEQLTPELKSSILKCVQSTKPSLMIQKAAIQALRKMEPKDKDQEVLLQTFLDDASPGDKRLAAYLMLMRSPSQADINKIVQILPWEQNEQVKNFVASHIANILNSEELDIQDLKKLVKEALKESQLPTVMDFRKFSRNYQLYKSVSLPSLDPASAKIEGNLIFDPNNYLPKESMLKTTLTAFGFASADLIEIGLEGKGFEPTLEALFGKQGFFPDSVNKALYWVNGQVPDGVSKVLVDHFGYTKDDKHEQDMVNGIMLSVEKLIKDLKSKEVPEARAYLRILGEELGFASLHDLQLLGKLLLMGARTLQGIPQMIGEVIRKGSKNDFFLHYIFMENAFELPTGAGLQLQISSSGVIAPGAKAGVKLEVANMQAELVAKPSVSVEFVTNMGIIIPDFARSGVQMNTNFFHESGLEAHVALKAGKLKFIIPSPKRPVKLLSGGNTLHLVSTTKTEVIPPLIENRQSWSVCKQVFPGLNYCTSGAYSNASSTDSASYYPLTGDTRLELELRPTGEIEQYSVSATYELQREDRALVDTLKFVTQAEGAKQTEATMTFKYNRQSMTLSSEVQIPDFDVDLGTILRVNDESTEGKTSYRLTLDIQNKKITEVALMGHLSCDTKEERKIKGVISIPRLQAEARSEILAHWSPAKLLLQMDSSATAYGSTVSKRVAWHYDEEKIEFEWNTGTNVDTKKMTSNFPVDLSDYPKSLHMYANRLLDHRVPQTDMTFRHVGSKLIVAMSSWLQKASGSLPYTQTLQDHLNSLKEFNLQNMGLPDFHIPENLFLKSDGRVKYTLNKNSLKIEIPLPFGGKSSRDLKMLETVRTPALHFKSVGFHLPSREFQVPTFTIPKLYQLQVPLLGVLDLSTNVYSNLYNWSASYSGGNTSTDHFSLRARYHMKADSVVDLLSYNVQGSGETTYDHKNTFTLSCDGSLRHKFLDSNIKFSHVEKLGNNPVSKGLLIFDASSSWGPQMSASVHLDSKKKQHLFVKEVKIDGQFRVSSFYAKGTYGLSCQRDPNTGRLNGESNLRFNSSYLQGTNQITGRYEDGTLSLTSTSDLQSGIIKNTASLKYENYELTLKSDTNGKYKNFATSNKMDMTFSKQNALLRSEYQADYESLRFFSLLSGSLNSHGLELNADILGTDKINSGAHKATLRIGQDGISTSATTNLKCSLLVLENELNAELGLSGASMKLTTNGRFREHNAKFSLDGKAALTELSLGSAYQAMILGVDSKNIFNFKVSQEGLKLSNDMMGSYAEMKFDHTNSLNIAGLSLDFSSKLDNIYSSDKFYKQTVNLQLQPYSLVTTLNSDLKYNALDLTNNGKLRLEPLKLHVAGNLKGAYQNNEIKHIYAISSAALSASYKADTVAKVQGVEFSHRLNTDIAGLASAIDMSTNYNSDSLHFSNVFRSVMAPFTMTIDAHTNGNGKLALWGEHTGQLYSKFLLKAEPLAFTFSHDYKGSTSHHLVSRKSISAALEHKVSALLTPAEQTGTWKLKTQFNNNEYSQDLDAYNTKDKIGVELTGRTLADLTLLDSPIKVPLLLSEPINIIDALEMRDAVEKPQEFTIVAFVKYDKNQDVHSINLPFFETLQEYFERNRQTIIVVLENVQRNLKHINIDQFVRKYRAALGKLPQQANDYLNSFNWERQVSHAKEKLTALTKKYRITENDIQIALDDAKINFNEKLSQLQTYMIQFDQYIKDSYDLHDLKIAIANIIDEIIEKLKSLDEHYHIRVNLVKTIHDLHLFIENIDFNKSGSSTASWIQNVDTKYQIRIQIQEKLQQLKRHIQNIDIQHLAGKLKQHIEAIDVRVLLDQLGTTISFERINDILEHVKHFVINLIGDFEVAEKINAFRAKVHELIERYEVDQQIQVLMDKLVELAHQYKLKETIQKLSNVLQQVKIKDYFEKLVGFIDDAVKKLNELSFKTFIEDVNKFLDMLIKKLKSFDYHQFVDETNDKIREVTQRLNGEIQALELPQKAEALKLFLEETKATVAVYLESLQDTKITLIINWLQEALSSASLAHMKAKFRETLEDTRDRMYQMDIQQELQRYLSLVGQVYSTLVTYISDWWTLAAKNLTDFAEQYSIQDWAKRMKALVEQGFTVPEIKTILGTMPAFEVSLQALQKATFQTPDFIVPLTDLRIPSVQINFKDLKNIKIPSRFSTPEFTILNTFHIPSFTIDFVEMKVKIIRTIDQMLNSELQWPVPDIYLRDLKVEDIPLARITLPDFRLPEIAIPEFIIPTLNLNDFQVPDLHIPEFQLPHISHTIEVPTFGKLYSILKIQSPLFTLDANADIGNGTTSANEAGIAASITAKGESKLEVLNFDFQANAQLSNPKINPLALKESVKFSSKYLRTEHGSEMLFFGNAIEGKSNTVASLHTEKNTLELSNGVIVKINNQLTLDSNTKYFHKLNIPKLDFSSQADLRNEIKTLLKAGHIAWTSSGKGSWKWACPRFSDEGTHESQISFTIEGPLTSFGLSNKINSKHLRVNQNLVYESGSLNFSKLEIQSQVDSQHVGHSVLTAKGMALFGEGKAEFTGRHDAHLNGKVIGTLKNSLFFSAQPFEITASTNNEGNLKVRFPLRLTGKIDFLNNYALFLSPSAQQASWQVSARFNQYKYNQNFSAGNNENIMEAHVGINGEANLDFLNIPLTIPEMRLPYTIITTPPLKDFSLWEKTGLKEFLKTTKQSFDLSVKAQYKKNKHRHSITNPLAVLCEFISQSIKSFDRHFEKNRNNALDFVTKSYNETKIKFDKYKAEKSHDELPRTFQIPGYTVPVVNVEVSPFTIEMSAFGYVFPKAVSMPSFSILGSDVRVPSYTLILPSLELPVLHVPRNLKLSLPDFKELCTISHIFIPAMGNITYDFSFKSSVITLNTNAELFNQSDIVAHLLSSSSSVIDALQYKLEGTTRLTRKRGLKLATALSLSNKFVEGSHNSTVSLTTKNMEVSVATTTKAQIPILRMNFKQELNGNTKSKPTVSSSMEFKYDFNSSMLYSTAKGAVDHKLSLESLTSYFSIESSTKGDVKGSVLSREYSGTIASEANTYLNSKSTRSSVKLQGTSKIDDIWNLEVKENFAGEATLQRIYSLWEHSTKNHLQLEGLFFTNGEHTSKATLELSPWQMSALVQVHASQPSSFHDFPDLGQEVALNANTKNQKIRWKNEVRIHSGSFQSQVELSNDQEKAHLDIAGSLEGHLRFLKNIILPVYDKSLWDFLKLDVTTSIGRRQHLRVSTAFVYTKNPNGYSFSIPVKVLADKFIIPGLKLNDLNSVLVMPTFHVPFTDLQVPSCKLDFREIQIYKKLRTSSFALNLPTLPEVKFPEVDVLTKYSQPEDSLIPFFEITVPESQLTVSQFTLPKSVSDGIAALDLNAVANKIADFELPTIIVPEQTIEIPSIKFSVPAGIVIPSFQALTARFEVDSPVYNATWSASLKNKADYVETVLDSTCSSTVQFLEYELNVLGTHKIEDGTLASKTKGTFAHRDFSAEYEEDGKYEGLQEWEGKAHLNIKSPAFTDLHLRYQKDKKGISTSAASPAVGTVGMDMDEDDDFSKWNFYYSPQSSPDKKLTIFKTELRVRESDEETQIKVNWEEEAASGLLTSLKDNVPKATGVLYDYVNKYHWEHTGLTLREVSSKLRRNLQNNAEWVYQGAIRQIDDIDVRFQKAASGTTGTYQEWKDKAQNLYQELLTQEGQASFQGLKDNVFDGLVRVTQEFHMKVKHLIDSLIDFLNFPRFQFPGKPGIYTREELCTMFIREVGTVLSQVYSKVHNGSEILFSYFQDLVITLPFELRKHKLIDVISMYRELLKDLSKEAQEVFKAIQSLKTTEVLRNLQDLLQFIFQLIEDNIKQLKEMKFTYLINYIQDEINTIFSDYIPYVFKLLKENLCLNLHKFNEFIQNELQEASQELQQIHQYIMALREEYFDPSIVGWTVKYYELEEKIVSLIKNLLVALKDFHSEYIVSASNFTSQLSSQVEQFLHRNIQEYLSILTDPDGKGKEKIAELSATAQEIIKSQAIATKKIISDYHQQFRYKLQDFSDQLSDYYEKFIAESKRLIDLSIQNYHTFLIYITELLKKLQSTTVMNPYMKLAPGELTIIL", "experiment": "Co-incubation with oxLDL, SDS-PAGE separation, Coomassie brilliant blue staining", "format": "binding", "experimental": "(§1) Experimental materials: sDSS1 protein, sDSS1 mutant protein 1 (sDSS1-M1, SEQ ID NO: 15), sDSS1 mutant protein 2 (sDSS1-M2, SEQ ID NO: 16), oxidized low density lipoprotein (oxLDL) (Solarbio, Article No.: H7980); low density lipoprotein (LDL) (Solarbio, Article No.: H7960).\n(§2) Experimental method: 2 μg of oxLDL or LDL was mixed with 6 μg of sDSS1 protein or 10 μg of sDSS1 protein in a 1.5 ml EP tube in the presence of 20 mM sodium acetate/acetic acid buffer (pH 4.5) or 20 mM phosphate buffer (pH 7.2) respectively, and incubated at 37° C. for 12 h. A loading buffer was added in the incubated product and evenly mixed, and the obtained mixture was denatured at 100° C. for 10 min to prepare a loading sample. The resulting sample was subjected to electrophoretic separation via polyacrylamide gel electrophoresis (SDS-PAGE). After separation, the SDS-PAGE gel was stained with Coomassie brilliant blue to display protein strips. The sDSS1-M1 or sDSS1-M2 protein was respectively mixed and incubated with oxLDL, and treated in the same way. 15 μL of the sample was used for SDS-PAGE electrophoresis separation."}, "LDL": {"system": "LDL", "experiment": "Co-incubation with LDL, SDS-PAGE separation, Coomassie brilliant blue staining", "format": "binding", "details": "12 h", "experimental": "as §1, §2"}, "[1]": {"system": "human umbilical vein endothelial cells (HUVECs)", "experiment": "Uptake of DiL-oxLDL by HUVEC cells (fluorescence microscope, flow cytometry)", "format": "cell-based", "details": "10 μg/ml DiL-oxLDL, 5 h", "experimental": "Experimental materials: sDSS1 protein, DiL-oxLDL (Thermo Fisher technology, Article No.: L34358), human umbilical vein endothelial cell (HUVEC) (PromoCell, Article No.: C-12200).\nExperimental method: HUVEC cells were inoculated into a 6-well plate with 300000 cells per well. After 24 h of adherence, 1.5 ml 10 μg/ml DiL-oxLDL was added, or 1.5 ml 10 μg/ml DiL-oxLDL was added together with 2 μg/ml, 5 μg/ml, 10 μg/ml or 20 μg/ml of the sDSS1 protein. After incubation for 5 h in an incubator, the fluorescence signal in the cells was observed by a fluorescence microscope. The cells were digested with trypsin to form single cells for detecting the fluorescence intensity via flow cytometry."}, "ApoE−/− mice [2]": {"system": "ApoE−/− mice", "experiment": "Plasma oxLDL and LDL levels (ELISA) in ApoE−/− mice after 7 days of administration", "format": "in vivo", "description": "ApoE−/− mice were divided into two groups, the control group and the sDSS1 protein administration group. […] At the end of the administration, the plasma levels of oxLDL and LDL in mice were detected.\nExperimental animal: ApoE−/− mice, 8-10 weeks old, male, were purchased from Nanjing Biomedical Research Institute of Nanjing University. The animals were housed in an animal room for one week before the experiment.\nExperimental materials: sDSS1 protein, oxLDL ELISA kit (Wuhan Elabscience Biotechnology Co., Ltd., Article No.: E-EL-M0066c), LDL ELISA kit (Wuhan Elabscience Biotechnology Co., Ltd., product No.: E-EL-M1363c)\nExperimental method: the ApoE−/− mice were randomly divided into two groups, a control group and a sDSS1 protein group. For 7 days, 200 μl of normal saline was intraperitoneally injected in control group once a day, and 10 mg/kg of the sDSS1 protein was intraperitoneally injected in sDSS1 protein group once a day. After 7 days of administration, the bloods of mice were collected, and plasma was separated with EDTA-Na as an anticoagulant. The plasma oxLDL level was measured by using the oxLDL ELISA kit, and the plasma LDL level was measured by the LDL ELISA kit.\n100 μl of oxLDL standards or samples were added in each well, and incubated for 90 min at 37° C.; the liquid in the well was discarded, 100 μl of biotinylated oxLDL antibody working liquid was added, and incubated at 37° C. for 60 min; washing 3 times; 100 μl of enzyme binding working solution was added, and incubated at 37° C. for 30 min; washing 5 times; 90 μl of substrate solution was added, and incubated at 37° C. for 15 min; 50 μl of termination solution was added, and the OD value was immediately measured at 450 nm wavelength; a standard curve was established with standard products, and the oxLDL level of each sample was calculated according to the standard curve.\n100 μl of LDL standards or samples were added into each well, and incubated for 90 min at 37° C.; the liquid in the well was discarded, 100 μl of biotinylated LDL antibody working liquid was added, and incubated at 37° C. for 60 min; washing 3 times; 100 μl of enzyme binding working liquid was added, and incubated at 37° C. for 30 min; washing 5 times; 90 μl of substrate solution was added, and incubated at 37° C. for 15 min; 50 μl of termination solution was added, and the OD value was immediately measured at 450 nm wavelength; a standard curve was established by using standard products, and the LDL level of each sample was calculated according to the standard curve. The oxLDL/LDL ratio=oxLDL concentration (ng/ml)÷LDL concentration (ng/ml) 5.2 Experimental Results"}, "ApoE−/− mice [3]": {"system": "ApoE−/− mice", "experiment": "Atherosclerotic plaques of the aorta (en face oil red O staining) in high-fat diet ApoE−/− mice", "format": "in vivo", "details": "13 weeks", "experimental": "FIGS. 15-16. The sDSS1 protein inhibits the formation of atherosclerotic plaques in ApoE−/− mice. […] At the end of the injection, the aorta was dissected for oil red O staining, and the area of plaques was calculated.\nExperimental animals: ApoE−/− mice, 8-week-old, male, were purchased from Nanjing Biomedical Research Institute of Nanjing University. The experimental animals were housed in an animal room for one week before the experiment.\nExperimental method: ApoE−/− mice were fed with high-fat diet containing 0.25% cholesterol starting from the age of 9 weeks. From the 10th week of high-fat diet feeding, the mice were randomly divided into three groups according to the total cholesterol level, with 10 mice in each group. […] At the 22nd week of high-fat diet feeding, that is, the 13th week of administration, the animals were executed and dissected, and the whole aorta was separated. The separated aorta was stained with en face oil red O to evaluate the formation of atherosclerotic plaques."}, "[4]": {"experiment": "Toxic reaction in animal experiments", "format": "in vivo", "description": "The sDSS1 protein used in the following examples is produced and quality controlled by the company itself. Upon detection, the purity of the protein is more than 95%, and endotoxins (the content of endotoxins is less than 3 EU/mg protein) and other impurity residues meet the standards."}},
  "note": "Entries after “also recorded” stand apart in the source; their conditions may differ.",
  "data": [
    {"molecule": "B1", "values": [
      {"measurement": "Interaction with oxLDL (complex on SDS-PAGE gel)", "setting": "oxLDL; phosphate buffer pH 7.2", "result": "interacted with the sDSS1 protein; also recorded: resulted in interactions"},
      {"measurement": "Interaction with oxLDL (complex on SDS-PAGE gel)", "setting": "oxLDL; sodium acetate/acetic acid buffer pH 4.5, 37° C., 12 h", "result": "interacted with the sDSS1 protein; also recorded: resulted in interactions"},
      {"measurement": "Interaction with LDL (complex on SDS-PAGE gel)", "setting": "LDL; phosphate buffer pH 7.2, 37° C.", "result": "interacted with the sDSS1 protein; also recorded: resulted in interactions"},
      {"measurement": "Interaction with LDL (complex on SDS-PAGE gel)", "setting": "LDL; sodium acetate/acetic acid buffer pH 4.5, 37° C.", "result": "interacted with the sDSS1 protein; also recorded: resulted in interactions"},
      {"measurement": "Fluorescence within HUVEC cells (flow cytometry)", "setting": "[1]; 2 μg/ml sDSS1 protein", "result": "significantly weakened"},
      {"measurement": "Uptake of oxLDL by HUVEC cells (flow cytometry statistics)", "setting": "[1]; 2 μg/ml sDSS1 protein", "result": "reduced by half"},
      {"measurement": "Fluorescence within HUVEC cells (flow cytometry)", "setting": "[1]; 10 μg/ml sDSS1 protein", "result": "significantly weakened"},
      {"measurement": "Concentration dependence of the reduction of fluorescence / oxLDL uptake in HUVEC cells", "setting": "[1]; 2, 5, 10, 20 μg/ml sDSS1 protein", "result": "concentration-dependent; also recorded: gradually weakened; also recorded: obviously dose-dependent"},
      {"measurement": "Plasma LDL level vs control group", "setting": "ApoE−/− mice [2]; sDSS1 10 mg/kg (10 mpk) intraperitoneal once a day", "result": "no significant difference; also recorded: did not cause significant changes"},
      {"measurement": "Plasma oxLDL/LDL ratio vs control group", "setting": "ApoE−/− mice [2]; sDSS1 10 mg/kg intraperitoneal once a day", "result": "significantly lower"},
      {"measurement": "Plasma LDL level vs control group", "setting": "ApoE−/− mice [2]; sDSS1 30 mg/kg (30 mpk) intraperitoneal once a day", "result": "did not cause significant changes"},
      {"measurement": "Plasma oxLDL level vs control group", "setting": "ApoE−/− mice [2]; sDSS1 30 mg/kg (30 mpk, high dose) intraperitoneal once a day", "result": "significantly reduced"},
      {"measurement": "Plasma oxLDL/LDL ratio vs control group", "setting": "ApoE−/− mice [2]; sDSS1 high dose (30 mpk) intraperitoneal once a day", "result": "significantly lower"},
      {"measurement": "Area of atherosclerotic plaques (en face oil red O) vs model group", "setting": "ApoE−/− mice [3]; sDSS1 3 mg/kg intraperitoneal once a day, high-fat diet", "result": "significantly reduced"},
      {"measurement": "Plaque area ratio (oil red O stained area / total aortic area) vs model group", "setting": "ApoE−/− mice [3]; sDSS1 3 mg/kg intraperitoneal once a day, **P<0.01", "result": "significantly smaller"},
      {"measurement": "Plaque area ratio, sDSS1 protein group vs positive drug group", "setting": "ApoE−/− mice [3]; sDSS1 3 mg/kg vs ATV 40 mg/kg", "result": "no significant difference"},
      {"measurement": "Effect on plaque area in certain areas of the aorta vs positive drug", "setting": "ApoE−/− mice [3]; sDSS1 3 mpk vs ATV 40 mpk", "result": "even better"},
      {"measurement": "Animal toxic reaction", "setting": "[4]", "result": "without causing obvious animal toxic reaction"}
    ]}
  ]
}
